Experimental data reported in the RNAGym collection of RNA variant scans (doi:10.1021/acssynbio.7b00057).

B1: Pistol ribozyme (parent)
chain: GGGUCGUUGUUCCAUAAUCGCGUGGAUAUGGCACGCAAGUUUCUACCGGGCACCGUAAAUGUCCGACUGGAGCCGUUCGGGCGGCUAUAAACAGACCUCAGGCCCGAAGCGUGGCGGCACCUGCCGCCGGUGGUAAAAAAGAUCGGAAGAGCACACGUCU

Variants of: B1
Assay: aptazyme ON/OFF ratio, guanine; higher = stronger switching; co-transcriptional cleavage with and without guanine

First: U7C U8A G9A U10C C12U C13G
Second: U7C U8G G9A U11G C12A C13A
The “aptazyme ON/OFF ratio” value of the first is lower: 1.11 for the first, 1.17 for the second.

Compared with U7A U8C U10C U11G, U7C U8C U10A U11C C12A C13U is lower in “aptazyme ON/OFF ratio” value: 1.26 for the first, 1.15 for the second.

First: U7G U10A U11C C13A
Second: U8G U11G C12U
The “aptazyme ON/OFF ratio” value of the first is lower: 1.04 for the first, 1.33 for the second.

First: U7G G9U U11C C12A C13A
Second: U8A G9A U10A U11C C12A C13A
The “aptazyme ON/OFF ratio” value of the first is higher: 1.42 for the first, 1.19 for the second.

Compared with U7C G9U U10C C13U, G9A U10A U11A C12A C13A is lower in “aptazyme ON/OFF ratio” value: 1.5 for the first, 1.4 for the second.

Going from U7A U8G G9C U10G U11C C13A to U7C U8G U10A U11A C12G C13U, the “aptazyme ON/OFF ratio” value rises from 1.1 to 1.17.

Compared with U7A U8G G9A U10G U11G C12A C13A, U7A U10A U11G C13A is lower in “aptazyme ON/OFF ratio” value: 1.65 for the first, 1.31 for the second.

First: U7A U8A G9U U11A C12U
Second: U7C U8C U10G U11G C13U
The “aptazyme ON/OFF ratio” value of the first is lower: 1.15 for the first, 1.16 for the second.

Going from U7G U10G to U8G U10G U11G C12G C13A, the “aptazyme ON/OFF ratio” value falls from 1.42 to 1.15.

Going from U7G U8A G9C C12U C13G to U7C U8C G9U U10G U11C C12U, the “aptazyme ON/OFF ratio” value rises from 1.06 to 1.25.

Compared with U7G U8G U10G U11C C12G C13A, U7A G9A is higher in “aptazyme ON/OFF ratio” value: 1.29 for the first, 1.83 for the second.

Going from U7A G9A U11C C12U C13U to U7C U10A U11C C12U C13A, the “aptazyme ON/OFF ratio” value falls from 1.22 to 1.05.

Compared with U7A U8A G9U U10A C12U C13U, U7A U8A G9U U10A U11G C12G C13G is higher in “aptazyme ON/OFF ratio” value: 1.13 for the first, 1.23 for the second.

First: U7A U8G G9U U10G U11C C12G C13A
Second: U7G U8A G9U U11G C12G C13A
The “aptazyme ON/OFF ratio” value of the first is higher: 1.11 for the first, 1.01 for the second.

First: U7G U8A G9U U11G C12G C13U
Second: G9U U11A C13A
The “aptazyme ON/OFF ratio” value of the first is lower: 1.06 for the first, 1.48 for the second.

Compared with U7C U8G G9A U10C U11G C12G C13U, U7C U8C G9A U10G C12G is higher in “aptazyme ON/OFF ratio” value: 1.09 for the first, 1.22 for the second.

Compared with U10G U11C C12A C13U, U8G G9C U10G U11A C12A C13A is lower in “aptazyme ON/OFF ratio” value: 1.4 for the first, 1.12 for the second.

Compared with U7A U8A G9A U10C C12G C13A, U7A U8A G9A U10C C12G C13G is lower in “aptazyme ON/OFF ratio” value: 1.11 for the first, 1.03 for the second.

Compared with U8G G9A U11G C13U, U7A U8G G9C U11A is higher in “aptazyme ON/OFF ratio” value: 1.04 for the first, 2.34 for the second.

Going from U7C G9A U10A U11C C12A C13A to U7C U8G G9U U10G C12G C13U, the “aptazyme ON/OFF ratio” value falls from 1.1 to 1.07.

Compared with U7G U8A U10G U11G C12U C13G, U7G U8C G9C C12U C13U is higher in “aptazyme ON/OFF ratio” value: 1.16 for the first, 1.21 for the second.

Going from U7G U8A G9A U10A U11A C12U C13A to G9A U10G U11C C12G C13U, the “aptazyme ON/OFF ratio” value rises from 1.15 to 1.24.

Compared with U7G U8A G9C U10C C12A C13G, U7G U8C U10C U11C C12U C13U is higher in “aptazyme ON/OFF ratio” value: 1.03 for the first, 1.11 for the second.

First: U7C U8G U11A C12A C13A
Second: U8A G9A U11A C12U C13G
The “aptazyme ON/OFF ratio” value of the first is lower: 1.09 for the first, 1.18 for the second.

Compared with U7A U10A U11A C12G C13A, U7A U8A G9C U10G U11A C12A C13A is higher in “aptazyme ON/OFF ratio” value: 1.07 for the first, 1.17 for the second.

First: U7A U8A G9A U11C C13G
Second: U7G U8C G9U U11G C13G
The “aptazyme ON/OFF ratio” value of the first is higher: 1.12 for the first, 1.05 for the second.

Compared with U8A U11G C12G C13G, U7A U8G G9U U11A C12G C13A is lower in “aptazyme ON/OFF ratio” value: 1.27 for the first, 1.11 for the second.

Going from U7G U8A G9C U11A to U8G G9A U10G U11G C12U C13A, the “aptazyme ON/OFF ratio” value rises from 1.14 to 1.36.

First: U7A U10G U11G C13A
Second: U7A U8G G9A U10G U11C C13G
The “aptazyme ON/OFF ratio” value of the first is higher: 1.12 for the first, 1.1 for the second.

Going from U7A G9U U11A C13A to U7A G9A U10C U11A C12G C13A, the “aptazyme ON/OFF ratio” value rises from 1.12 to 1.19.

Going from U8C G9A C12A C13A to U7A U8G G9U U10G U11A C13A, the “aptazyme ON/OFF ratio” value falls from 1.33 to 1.17.

First: U7C U8C U10C C12A
Second: U7C U8A U10C C12G C13U
The “aptazyme ON/OFF ratio” value of the first is higher: 1.39 for the first, 1.31 for the second.

First: U7G U8A C13G
Second: U7A U8A G9U U11C C12A C13G
The “aptazyme ON/OFF ratio” value of the first is higher: 1.41 for the first, 1.13 for the second.

Compared with U7C U8C U11G C12A C13G, U7C U8C U11G C12A C13U is higher in “aptazyme ON/OFF ratio” value: 1.11 for the first, 1.2 for the second.

First: U7G G9C U10G U11C C12A C13A
Second: U7G G9U U10C U11A C13G
The “aptazyme ON/OFF ratio” value of the first is higher: 1.19 for the first, 1.16 for the second.

First: U7A U8G G9C U10C U11G C12G
Second: U7A G9U U10C C13G
The “aptazyme ON/OFF ratio” value of the first is higher: 1.16 for the first, 1.02 for the second.

Going from U8C U10C U11C C12U C13U to U7A U8G U10G U11G C12U, the “aptazyme ON/OFF ratio” value rises from 1.28 to 1.42.

Compared with U7G U8G G9A U10A C12U C13G, U7A U8A U10A U11C C12A C13A is lower in “aptazyme ON/OFF ratio” value: 1.15 for the first, 1.04 for the second.

Going from U7G U8A U10G C12U C13U to G9C C12G C13G, the “aptazyme ON/OFF ratio” value rises from 1.12 to 1.14.

Compared with U7C U8A G9C U10G C12U C13A, U7G U8G G9A C13G is lower in “aptazyme ON/OFF ratio” value: 1.18 for the first, 1.17 for the second.

Going from U8A U10A U11G C12G C13G to U7A U10C U11A C13G, the “aptazyme ON/OFF ratio” value falls from 1.15 to 1.09.

With U7G U8A G9A U11G C12U C13A the “aptazyme ON/OFF ratio” value was 1.22.
